B1: CPEB3 Ribozyme (parent)
chain: UAACAGGGGGCCACAGCAGAAGCGUUCACGUCGCAGCCCCUGUCAGAUUCUGGUGAAUCUGCGAAUUCUGCUGUAUAUCUC

Variants of: B1
Assay: self-cleavage, relative activity (ratio to wild type); higher = more cleavage; in vitro, sequencing
Outline: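 Barcoded CPEB3 ribozyme mutants, produced by rounds of error-prone PCR, self-cleaved while being transcribed with T7 RNA polymerase for 5 hours at 37°C and during a subsequent 15 min DNase I step before EDTA was added. Sequencing of template-switched cDNA on Illumina gave cleaved and total reads, and DNA sequencing assigned barcodes to variants. Each variant's relative activity is its cleaved/total read fraction divided by the unmutated ribozyme's fraction, averaged across three batches. A variant needed a minimum of 5 reads.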

Variant	self-cleavage
A28U U31C	0.53
A28U U31G	0.31
A28U U31A	0.41
A28U G36C	0.37
A28U G36A	0.08
A28U G36U	0.41
A28U A45C	0.25
A28U A45U	0.4
A28U A45G	0.47
C29A U78A	0.27
C29A U78C	0.3
A28G U78A	0.71
A28G U78G	0.67
A28G U78C	0.61
C29A C62U	0.15
A28U G33C	0.26
A28U G33U	0.14
A28U G33A	0.2
C29U C68U	0.42
C29A G55A	0.31
C29U U72A	0.42
C29U U72C	0.75
C29U U72G	0.53
A28G U31C	0.48

Variant	self-cleavage
A28G U31G	0.25
A28G U31A	0.33
C29A U48C	0.11
C29A U48A	0.09
C29A U76G	0.42
C29U U58A	0.43
C29U U58C	0.46
C29U U58G	0.17
A28U C79U	0.99
C29U C37U	0.34
A28G G73U	1.26
G30A	0.29
A28U C40G	0.19
A28U C40A	0.47
A28U C40U	0.59
C29U A75U	0.72
C29U A75G	0.46
A28U C38U	0.48
A28U U54A	0.71
A28U U54C	0.78
C29U G52U	0.39
C29U G52A	0.46
C29G A45G	0.29
C29G C34G	0.22

Variant	self-cleavage
C29G C34U	0.08
C29A U74A	0.62
A28U U58C	0.39
A28U U58G	0.2
A28U U58A	0.26
A28U U72G	0.89
A28U U72C	0.88
A28U U72A	0.55
A28U U51C	0.73
A28U U51A	0.77
C29A A47G	0.4
A28G U58C	0.27
A28G U58G	0.46
A28G U58A	0.24
C29G G55A	0.16
C29G A56G	0.23
A28G U76C	0.67
A28G U76A	0.61
A28G U76G	0.56
A28G U48C	0.29
A28G U48A	0.26
A28G U48G	0.43
C29U C39G	0.22
C29U C39A	0.28

Variant	self-cleavage
A28G U41G	0.15
A28G U41C	0.6
A28G U41A	0.27
A28U G30U	0.2
A28U G30A	0.11
C29G U69C	0.21
C29G U69A	0.13
C29G U69G	0.12
A28U G52A	0.83
C29U C81A	0.71
C29A C68A	0.23
C29G U49A	0.38
C29U G30U	0.23
C29A U58C	0.29
A28G U60G	0.16
A28G U60A	0.32
A28G U60C	0.25
C29A U60A	0.11
C29A U60C	0.2
A28U C32U	0.17
A28U C32A	0.19
A28U C62U	0.19
A28U C62A	0.33
A28U A47G	0.89

Variant	self-cleavage
A28U A47U	0.67
A28U A35U	0.35
A28U A35G	1.22
A28U A35C	0.47
A28U A64U	0.31
A28U A64C	0.34
A28U A64G	0.63
C29A A56G	0.43
A28U C71U	0.39
C29U C40U	0.51
C29G A35G	0.67
C29U U49A	0.16
C29U U49C	0.39
A28U C81A	0.84
A28U C81U	0.86
A28U U80A	0.71
A28U U80C	0.97
C29A A64G	0.37
C29A A64U	0.27
A28G U80A	0.72
A28G U80C	0.81
C29G C59G	0.2
C29G C59A	0.1
A28G U54A	0.6

Variant	self-cleavage
A28G U54G	0.41
A28G U54C	0.58
C29U C79U	0.38
C29U C79A	0.7
C29U C79G	0.68
C29U U51G	0.8
C29U U51A	0.53
C29U U51C	0.46
C29U A45G	0.42
C29U A45U	0.19
C29U A47U	0.24
C29U A47G	0.55
A28U G63A	0.62
A28U U49G	0.11
A28U U49C	0.31
A28U U49A	0.43
A28U U69C	0.33
A28U U69G	0.42
A28U U69A	0.37
C29U U67A	0.29
C29U U67C	0.23
C29U U41A	0.43
C29U U41G	0.26
C29U U41C	0.49

Variant	self-cleavage
C29A A57G	0.33
C29U U60G	0.19
C29U U60C	0.24
C29U U60A	0.2
A28G U69G	0.48
A28G U69A	0.29
A28G U69C	0.25
A28U C39A	0.15
A28U C39U	0.48
A28U C39G	0.27
C29U U54A	0.54
C29U U54C	0.42
C29G G30A	0.2
C29A U69G	0.22
C29A U69C	0.18
A28G U51G	0.45
A28G U51A	0.63
A28G U51C	0.62
C29G U43C	0.3
C29U G73C	1.15
C29G G33U	0.09
A28U G42C	0.28
A28U G42A	0.27
